Key:
[1] = tested on: Triosephosphate Isomerase from Yeast; format: biochemical, Saccharomyces cerevisiae; conditions: for GAP kcat: 30 mM triethanolamine pH 7.5, 25 °C
[2] = tested on: Triosephosphate Isomerase from Yeast; format: biochemical, Saccharomyces cerevisiae; conditions: isomerization of DHAP; pH 7.5, 25 °C, I = 0.1 (NaCl)
[3] = tested on: ketosteroid isomerase (KSI) from Pseudomonas putida; conditions: cited from earlier work
[4] = target: T1, Triosephosphate Isomerase from Yeast (Saccharomyces cerevisiae, UniProt P00942, Y208F); format: biochemical
T1 sequence (P00942 2-248 Y208F): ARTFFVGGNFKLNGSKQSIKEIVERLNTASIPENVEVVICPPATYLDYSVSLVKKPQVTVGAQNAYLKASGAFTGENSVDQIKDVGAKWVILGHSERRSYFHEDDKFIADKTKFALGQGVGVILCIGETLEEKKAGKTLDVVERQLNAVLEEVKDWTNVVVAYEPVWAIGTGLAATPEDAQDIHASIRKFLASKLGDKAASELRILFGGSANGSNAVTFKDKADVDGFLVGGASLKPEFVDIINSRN

[5] = tested on: yTIM; format: biochemical, Saccharomyces cerevisiae; conditions: unactivated deprotonation of glycolaldehyde
[6] = target: T1, Triosephosphate Isomerase from Yeast; conditions: isomerization of [l-^2H]-dihydroxyacetone phosphate; cited from earlier work
[7] = tested on: TIM from chicken muscle; conditions: chicken muscle TIM loop replacement mutant; pH 7.5, 25 °C; cited from earlier work
[8] = tested on: TIM from chicken muscle; conditions: chicken muscle TIM loop replacement mutant; pH 7.5, 25 °C; cited from earlier work; remark: listed apart in the source
[9] = tested on: TIM from chicken muscle; conditions: cited from earlier work
[10] = isomerization of GAP, I = 0.1 (NaCl)

B1: S211G (protein, UniProt P00942 2-248, looked up, variant S211G)
Triosephosphate isomerase: ARTFFVGGNFKLNGSKQSIKEIVERLNTASIPENVEVVICPPATYLDYSVSLVKKPQVTVGAQNAYLKASGAFTGENSVDQIKDVGAKWVILGHSERRSYFHEDDKFIADKTKFALGQGVGVILCIGETLEEKKAGKTLDVVERQLNAVLEEVKDWTNVVVAYEPVWAIGTGLAATPEDAQDIHASIRKFLASKLGDKAASELRILYGGGANGSNAVTFKDKADVDGFLVGGASLKPEFVDIINSRN
- activity relative to S211A TIM ([1]; S211G greater than S211A): 20 fold
- GAP kcat [1, 10]: 7500 ± 500 s^–1
- DHAP kcat [2]: 810 ± 10 s^–1

B2: Y16F: Y16F mutant of ketosteroid isomerase (KSI) from Pseudomonas putida (protein, UniProt P07445 1-131, looked up, variant Y16F)
Steroid Delta-isomerase: MNLPTAQEVQGLMARFIELVDVGDIEAIVQMYADDATVEDPFGQPPIHGREQIAAFYRQGLGGGKVRACLTGPVRASHNGCGAMPFRVEMVWNGQPCALDVIDVMRFDEHGRIQTMQAYWSEVNLSVREPQ
- falloff in activity [3]: 5000 fold
- falloff in activity (decrease in kcat/Km) relative to that for Y16A, Y16G, Y16S and Y16T mutants [3]: ca. 100 fold

B3: Y208F: Y208F loop 7 mutant of yeast triosephosphate isomerase (protein, UniProt P00942 2-248, looked up, variant Y208F)
Triosephosphate isomerase: ARTFFVGGNFKLNGSKQSIKEIVERLNTASIPENVEVVICPPATYLDYSVSLVKKPQVTVGAQNAYLKASGAFTGENSVDQIKDVGAKWVILGHSERRSYFHEDDKFIADKTKFALGQGVGVILCIGETLEEKKAGKTLDVVERQLNAVLEEVKDWTNVVVAYEPVWAIGTGLAATPEDAQDIHASIRKFLASKLGDKAASELRILFGGSANGSNAVTFKDKADVDGFLVGGASLKPEFVDIINSRN
- reduction in enzyme activity compared to the Y208A and Y208S mutants [1]: ca. 50 fold
- GAP kcat [1, 10]: 13 ± 1 s^–1
- reduction in kcat implied by deviation from Figure 7 correlation ([4]; kcat for GAP vs Kd^⧧ correlation): 40 fold
- negative deviation from the correlation in Figure 7 ([4]; log kcat for GAP vs intrinsic dianion binding energy): 1.6 log unit
- decrease in (kcat/Km)E compared with wildtype [5]: 20 fold
- primary deuterium kinetic isotope effect kH/kD on kcat/Km [6]: 6
- DHAP kcat [2]: 4.5 ± 0.3 s^–1

B4: S211A (protein, UniProt P00942 2-248, looked up, variant S211A)
Triosephosphate isomerase: ARTFFVGGNFKLNGSKQSIKEIVERLNTASIPENVEVVICPPATYLDYSVSLVKKPQVTVGAQNAYLKASGAFTGENSVDQIKDVGAKWVILGHSERRSYFHEDDKFIADKTKFALGQGVGVILCIGETLEEKKAGKTLDVVERQLNAVLEEVKDWTNVVVAYEPVWAIGTGLAATPEDAQDIHASIRKFLASKLGDKAASELRILYGGAANGSNAVTFKDKADVDGFLVGGASLKPEFVDIINSRN
- GAP kcat [1, 10]: 2800 ± 100 s^–1
- decrease in (kcat/Km)E compared with wildtype [5]: 30 fold
- DHAP kcat [2]: linear plot

B5: Y208A (protein, UniProt P00942 2-248, looked up, variant Y208A)
Triosephosphate isomerase: ARTFFVGGNFKLNGSKQSIKEIVERLNTASIPENVEVVICPPATYLDYSVSLVKKPQVTVGAQNAYLKASGAFTGENSVDQIKDVGAKWVILGHSERRSYFHEDDKFIADKTKFALGQGVGVILCIGETLEEKKAGKTLDVVERQLNAVLEEVKDWTNVVVAYEPVWAIGTGLAATPEDAQDIHASIRKFLASKLGDKAASELRILAGGSANGSNAVTFKDKADVDGFLVGGASLKPEFVDIINSRN
- GAP kcat [1, 10]: 740 ± 10 s^–1
- DHAP kcat [2]: 210 ± 5 s^–1

B6: Y208T/S211G (protein, UniProt P00942 2-248, looked up, variant Y208T S211G)
Triosephosphate isomerase: ARTFFVGGNFKLNGSKQSIKEIVERLNTASIPENVEVVICPPATYLDYSVSLVKKPQVTVGAQNAYLKASGAFTGENSVDQIKDVGAKWVILGHSERRSYFHEDDKFIADKTKFALGQGVGVILCIGETLEEKKAGKTLDVVERQLNAVLEEVKDWTNVVVAYEPVWAIGTGLAATPEDAQDIHASIRKFLASKLGDKAASELRILTGGGANGSNAVTFKDKADVDGFLVGGASLKPEFVDIINSRN
- GAP kcat [1, 10]: 520 ± 30 s^–1
- GAP kcat/Km (upper value) ([1]; isomerization of GAP, pH 7.5, 25 °C, I = 0.1 (NaCl), calculated for total concentration of GAP): (7.3 ± 0.8) × 10^5 M^–1 s^–1
- GAP kcat/Km (lower value) ([1]; isomerization of GAP, pH 7.5, 25 °C, calculated for the reactive carbonyl form, 4% of total GAP): 1.8 × 10^7 M^–1 s^–1
- DHAP kcat [2]: 135 ± 5 s^–1
- DHAP kcat/Km [2]: (3.4 ± 0.2) × 10^4 M^–1 s^–1

B7: 208-TGAG for 208-YGGS (LRM): 208-TGAG for 208-YGGS loop 7 replacement mutation of TIM from chicken muscle (protein, UniProt P00940 2-248, looked up, variant Y208T G210A S211G)
Triosephosphate isomerase: APRKFFVGGNWKMNGDKKSLGELIHTLNGAKLSADTEVVCGAPSIYLDFARQKLDAKIGVAAQNCYKVPKGAFTGEISPAMIKDIGAAWVILGHSERRHVFGESDELIGQKVAHALAEGLGVIACIGEKLDEREAGITEKVVFEQTKAIADNVKDWSKVVLAYEPVWAIGTGKTATPQQAQEVHEKLRGWLKSHVSDAVAQSTRIITGAGVTGGNCKELASQHDVDGFLVGGASLKPEFVDIINAKH
- GAP kcat [7]: 16 s^–1
- DHAP kcat [8]: 8.0 s^–1
- (kcat/Km)E•HPi/Kd ([9]; chicken muscle TIM loop replacement mutant, third-order rate constant): 95 M^–2 s^–1
- effect of mutation on [(kcat/Km)E]obs: KC ([9]; chicken muscle TIM): no change

B8: wildtype: wildtype triosephosphate isomerase from Saccharomyces cerevisiae (yTIM) (protein, UniProt P00942 2-248, looked up)
Triosephosphate isomerase: ARTFFVGGNFKLNGSKQSIKEIVERLNTASIPENVEVVICPPATYLDYSVSLVKKPQVTVGAQNAYLKASGAFTGENSVDQIKDVGAKWVILGHSERRSYFHEDDKFIADKTKFALGQGVGVILCIGETLEEKKAGKTLDVVERQLNAVLEEVKDWTNVVVAYEPVWAIGTGLAATPEDAQDIHASIRKFLASKLGDKAASELRILYGGSANGSNAVTFKDKADVDGFLVGGASLKPEFVDIINSRN
- GAP kcat [1, 10]: 8900 ± 700 s^–1
- DHAP kcat [2]: 860 ± 10 s^–1

B9: Y208T (protein, UniProt P00942 2-248, looked up, variant Y208T)
Triosephosphate isomerase: ARTFFVGGNFKLNGSKQSIKEIVERLNTASIPENVEVVICPPATYLDYSVSLVKKPQVTVGAQNAYLKASGAFTGENSVDQIKDVGAKWVILGHSERRSYFHEDDKFIADKTKFALGQGVGVILCIGETLEEKKAGKTLDVVERQLNAVLEEVKDWTNVVVAYEPVWAIGTGLAATPEDAQDIHASIRKFLASKLGDKAASELRILTGGSANGSNAVTFKDKADVDGFLVGGASLKPEFVDIINSRN
- GAP kcat [1, 10]: 3700 ± 50 s^–1
- DHAP kcat [2]: 580 ± 10 s^–1

B10: Y208S (protein, UniProt P00942 2-248, looked up, variant Y208S)
Triosephosphate isomerase: ARTFFVGGNFKLNGSKQSIKEIVERLNTASIPENVEVVICPPATYLDYSVSLVKKPQVTVGAQNAYLKASGAFTGENSVDQIKDVGAKWVILGHSERRSYFHEDDKFIADKTKFALGQGVGVILCIGETLEEKKAGKTLDVVERQLNAVLEEVKDWTNVVVAYEPVWAIGTGLAATPEDAQDIHASIRKFLASKLGDKAASELRILSGGSANGSNAVTFKDKADVDGFLVGGASLKPEFVDIINSRN
- GAP kcat [1, 10]: 940 ± 30 s^–1
- DHAP kcat [2]: 250 ± 5 s^–1

Reference: article PMC4694050 (Journal of the American Chemical Society, 2015)
